This passage reports relative telomerase activity (TRAPEZE kit, real time PCR) in transfected MRC 5 cells against non-transfected cells results from patent publication US20180325997A1.

The assay concerns the target hTERT (human telomerase reverse transcriptase) (human) (UniProt O14746). Kind of assay: cell-based or functional assay.

Chain of hTERT (human telomerase reverse transcriptase) (human) (O14746 whole entry): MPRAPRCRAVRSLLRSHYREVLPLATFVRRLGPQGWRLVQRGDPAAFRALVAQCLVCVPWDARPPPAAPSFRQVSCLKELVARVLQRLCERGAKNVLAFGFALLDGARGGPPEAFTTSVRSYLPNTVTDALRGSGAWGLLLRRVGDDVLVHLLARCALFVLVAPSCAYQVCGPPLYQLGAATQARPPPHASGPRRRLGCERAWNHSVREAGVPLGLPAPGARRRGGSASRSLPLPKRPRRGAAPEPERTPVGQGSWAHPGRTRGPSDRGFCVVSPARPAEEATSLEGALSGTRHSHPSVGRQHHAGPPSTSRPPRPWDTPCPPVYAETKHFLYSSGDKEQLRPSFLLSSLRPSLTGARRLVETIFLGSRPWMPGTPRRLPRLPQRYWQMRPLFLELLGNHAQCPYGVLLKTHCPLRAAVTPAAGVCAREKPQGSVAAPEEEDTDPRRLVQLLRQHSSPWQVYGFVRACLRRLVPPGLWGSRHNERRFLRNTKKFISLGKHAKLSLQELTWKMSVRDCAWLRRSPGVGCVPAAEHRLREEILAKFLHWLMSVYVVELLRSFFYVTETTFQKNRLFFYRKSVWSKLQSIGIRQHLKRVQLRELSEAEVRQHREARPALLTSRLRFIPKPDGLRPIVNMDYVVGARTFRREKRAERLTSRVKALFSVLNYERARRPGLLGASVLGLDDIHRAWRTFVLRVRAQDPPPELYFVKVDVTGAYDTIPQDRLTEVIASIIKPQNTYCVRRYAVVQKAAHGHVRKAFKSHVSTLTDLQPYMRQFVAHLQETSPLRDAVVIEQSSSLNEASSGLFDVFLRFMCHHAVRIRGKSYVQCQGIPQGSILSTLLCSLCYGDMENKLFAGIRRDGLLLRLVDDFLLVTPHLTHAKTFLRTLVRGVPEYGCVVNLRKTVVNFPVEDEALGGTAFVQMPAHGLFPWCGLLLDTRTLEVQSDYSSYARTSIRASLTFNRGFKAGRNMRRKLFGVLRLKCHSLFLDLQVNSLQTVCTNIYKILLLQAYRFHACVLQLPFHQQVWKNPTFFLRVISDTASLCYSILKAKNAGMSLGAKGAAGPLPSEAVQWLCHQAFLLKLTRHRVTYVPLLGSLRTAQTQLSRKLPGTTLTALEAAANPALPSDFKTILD

With “LRP102-295::FLAG fragment (from UniProt P14206 102-295) (receptor)”, the relative telomerase activity (TRAPEZE kit, real time PCR) in transfected MRC 5 cells against non-transfected cells amounted to 83.4 % elevation.
